Results taken from IntAct's records for PubMed 20067578.

Target: mp2k6_human MAP2K6 (UniProt P52564)
UniProt P52564, sequence (P52564 whole entry): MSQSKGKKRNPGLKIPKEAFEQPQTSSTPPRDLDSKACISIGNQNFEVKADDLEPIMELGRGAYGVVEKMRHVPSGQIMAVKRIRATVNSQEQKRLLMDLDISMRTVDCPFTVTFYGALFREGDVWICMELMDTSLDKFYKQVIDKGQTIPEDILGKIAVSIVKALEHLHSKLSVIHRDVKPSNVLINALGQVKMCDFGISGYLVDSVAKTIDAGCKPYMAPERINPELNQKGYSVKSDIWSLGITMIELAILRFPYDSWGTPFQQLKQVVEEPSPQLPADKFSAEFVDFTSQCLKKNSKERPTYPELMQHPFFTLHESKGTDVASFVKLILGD

- effect of a mutation on the interaction: increasing interaction
Substance: Leucine-rich repeat serine/threonine-protein kinase 2 (Homo sapiens), Q5S007 R1441C
